Source: the Human Domainome abundance scans (Beltran et al. 2025)
± gives the uncertainty stated by the source.

B1: E3 ubiquitin-protein ligase TRIM36, residues 208 to 252; numbered along this chain, Q9NQ86 (parent)
chain: KILMCPEHETERINMYCELCRRPVCHLCKLGGNHANHRVTTMSSA
B2: Bromodomain adjacent to zinc finger domain protein 2B, residues 1927 to 1982; numbered along this chain, Q9UIF8 (parent)
chain: KSIMKVYCQICRKGDNEELLLLCDGCDKGCHTYCHRPKITTIPDGDWFCPACIAKA

Variants of: B1
Assay: abundance fitness (aPCA) (normalised: wild type 0, dead -1); higher = more abundant; growth selection in yeast, the domain comes from the species named
Conditions: Homo sapiens

First: KILMAPEHETERINMYCELCRRPVCHLCKLGGNHANHRVTTMSSA [C5A]
Second: KILMEPEHETERINMYCELCRRPVCHLCKLGGNHANHRVTTMSSA [C5E]
The abundance fitness of the first is lower: -0.82 ± 0.062 for the first, -0.655 ± 0.093 for the second.

KSLMCPEHETERINMYCELCRRPVCHLCKLGGNHANHRVTTMSSA [I2S] and KYLMCPEHETERINMYCELCRRPVCHLCKLGGNHANHRVTTMSSA [I2Y] are within error of each other in abundance fitness: -0.19 ± 0.066 for the first, -0.532 ± 0.29 for the second.

Going from KPLMCPEHETERINMYCELCRRPVCHLCKLGGNHANHRVTTMSSA [I2P] to KELMCPEHETERINMYCELCRRPVCHLCKLGGNHANHRVTTMSSA [I2E], the abundance fitness rises from -0.386 ± 0.068 to -0.042 ± 0.049.

KLLMCPEHETERINMYCELCRRPVCHLCKLGGNHANHRVTTMSSA [I2L] and KGLMCPEHETERINMYCELCRRPVCHLCKLGGNHANHRVTTMSSA [I2G] are within error of each other in abundance fitness: -0.083 ± 0.059 for the first, -0.115 ± 0.048 for the second.

Compared with KCLMCPEHETERINMYCELCRRPVCHLCKLGGNHANHRVTTMSSA [I2C], KMLMCPEHETERINMYCELCRRPVCHLCKLGGNHANHRVTTMSSA [I2M] is higher in abundance fitness: -0.345 ± 0.11 for the first, -0.068 ± 0.062 for the second.

KALMCPEHETERINMYCELCRRPVCHLCKLGGNHANHRVTTMSSA [I2A] and KRLMCPEHETERINMYCELCRRPVCHLCKLGGNHANHRVTTMSSA [I2R] are within error of each other in abundance fitness: -0.165 ± 0.047 for the first, -0.243 ± 0.055 for the second.

KTLMCPEHETERINMYCELCRRPVCHLCKLGGNHANHRVTTMSSA [I2T] and KDLMCPEHETERINMYCELCRRPVCHLCKLGGNHANHRVTTMSSA [I2D] are within error of each other in abundance fitness: -0.097 ± 0.056 for the first, 0.012 ± 0.077 for the second.

First: KKLMCPEHETERINMYCELCRRPVCHLCKLGGNHANHRVTTMSSA [I2K]
Second: KWLMCPEHETERINMYCELCRRPVCHLCKLGGNHANHRVTTMSSA [I2W]
The abundance fitness of the first is higher: -0.234 ± 0.073 for the first, -0.405 ± 0.062 for the second.

KFLMCPEHETERINMYCELCRRPVCHLCKLGGNHANHRVTTMSSA [I2F] and KHLMCPEHETERINMYCELCRRPVCHLCKLGGNHANHRVTTMSSA [I2H] are within error of each other in abundance fitness: -0.001 ± 0.12 for the first, -0.139 ± 0.06 for the second.

First: KNLMCPEHETERINMYCELCRRPVCHLCKLGGNHANHRVTTMSSA [I2N]
Second: KVLMCPEHETERINMYCELCRRPVCHLCKLGGNHANHRVTTMSSA [I2V]
The abundance fitness of the first is higher: 0.011 ± 0.067 for the first, -0.157 ± 0.066 for the second.

Variants of: B2
Assay: as above
Conditions: Homo sapiens

KSIMKVYCQICRKGDNEELLLLCDGCDKGCHTYCHRPKITTIPDGDWFCPACIRKA [A54R] and KSIMKVYCQICRKGDNEELLLLCDGCDKGCHTYCHRPKITTIPDGDWFCPACINKA [A54N] are within error of each other in abundance fitness: -0.211 ± 0.073 for the first, -0.136 ± 0.17 for the second.

KSIMKVYCQICRKGDNEELLLLCDGCDKGCHTYCHRPKITTIPDGDWFCPACIYKA [A54Y] and KSIMKVYCQICRKGDNEELLLLCDGCDKGCHTYCHRPKITTIPDGDWFCPACIGKA [A54G] are within error of each other in abundance fitness: -0.102 ± 0.2 for the first, -0.086 ± 0.072 for the second.

KSIMKVYCQICRKGDNEELLLLCDGCDKGCHTYCHRPKITTIPDGDWFCPACIFKA [A54F] and KSIMKVYCQICRKGDNEELLLLCDGCDKGCHTYCHRPKITTIPDGDWFCPACISKA [A54S] are within error of each other in abundance fitness: -0.093 ± 0.14 for the first, -0.082 ± 0.088 for the second.

KSIMKVYCQICRKGDNEELLLLCDGCDKGCHTYCHRPKITTIPDGDWFCPACITKA [A54T] and KSIMKVYCQICRKGDNEELLLLCDGCDKGCHTYCHRPKITTIPDGDWFCPACIVKA [A54V] are within error of each other in abundance fitness: -0.031 ± 0.1 for the first, -0.053 ± 0.09 for the second.

KSIMKVYCQICRKGDNEELLLLCDGCDKGCHTYCHRPKITTIPDGDWFCPACIKKA [A54K] and KSIMKVYCQICRKGDNEELLLLCDGCDKGCHTYCHRPKITTIPDGDWFCPACIHKA [A54H] are within error of each other in abundance fitness: -0.036 ± 0.12 for the first, -0.164 ± 0.13 for the second.

KSIMKVYCQICRKGDNEELLLLCDGCDKGCHTYCHRPKITTIPDGDWFCPACIWKA [A54W] and KSIMKVYCQICRKGDNEELLLLCDGCDKGCHTYCHRPKITTIPDGDWFCPACIIKA [A54I] are within error of each other in abundance fitness: -0.229 ± 0.1 for the first, -0.265 ± 0.13 for the second.

KSIMKVYCQICRKGDNEELLLLCDGCDKGCHTYCHRPKITTIPDGDWFCPACIPKA [A54P] and KSIMKVYCQICRKGDNEELLLLCDGCDKGCHTYCHRPKITTIPDGDWFCPACIQKA [A54Q] are within error of each other in abundance fitness: 0.048 ± 0.1 for the first, 0.066 ± 0.11 for the second.

KSIMKVYCQICRKGDNEELLLLCDGCDKGCHTYCHRPKITTIPDGDWFCPACICKA [A54C] and KSIMKVYCQICRKGDNEELLLLCDGCDKGCHTYCHRPKITTIPDGDWFCPACIEKA [A54E] are within error of each other in abundance fitness: -0.095 ± 0.15 for the first, 0.113 ± 0.1 for the second.

Compared with KSIMKVYCQICRKGDNEELLLLCDGCDKGCHTYCHRPKITTIPDGDWFCPACIMKA [A54M], KSIMKVYCQICRKGDNEELLLLCDGCDKGCHTYCHRPKITTIPDGDWFCPACILKA [A54L] is higher in abundance fitness: -0.309 ± 0.19 for the first, 0.032 ± 0.089 for the second.

KSIMKVYCQICRKGDNEELLLLCDGCDKGCHTYCHRPKITTIPDGDWFCPACIDKA [A54D] and KSIMKVYCQICRKGDNEELLLLCDGCDKGCHTYCHRPKITTIPDGDWFCPACYAKA [I53Y] are within error of each other in abundance fitness: -0.062 ± 0.12 for the first, -0.026 ± 0.16 for the second.

KSIMKVYCQICRKGDNEELLLLCDGCDKGCHTYCHRPKITTIPDGDWFCPACIAKP [A56P] and KSIMKVYCQICRKGDNEELLLLCDGCDKGCHTYCHRPKITTIPDGDWFCPACIAKC [A56C] are within error of each other in abundance fitness: -0.533 ± 0.26 for the first, -0.211 ± 0.23 for the second.

KSIMKVYCQICRKGDNEELLLLCDGCDKGCHTYCHRPKITTIPDGDWFCPACIAKR [A56R] and KSIMKVYCQICRKGDNEELLLLCDGCDKGCHTYCHRPKITTIPDGDWFCPACIAKQ [A56Q] are within error of each other in abundance fitness: 0.174 ± 0.23 for the first, -0.176 ± 0.32 for the second.

KSIMKVYCQICRKGDNEELLLLCDGCDKGCHTYCHRPKITTIPDGDWFCPACIAKV [A56V] and KSIMKVYCQICRKGDNEELLLLCDGCDKGCHTYCHRPKITTIPDGDWFCPACIAKD [A56D] are within error of each other in abundance fitness: 0.045 ± 0.18 for the first, -0.019 ± 0.2 for the second.

KSIMKVYCQICRKGDNEELLLLCDGCDKGCHTYCHRPKITTIPDGDWFCPACIAKS [A56S] and KSIMKVYCQICRKGDNEELLLLCDGCDKGCHTYCHRPKITTIPDGDWFCPACIAKG [A56G] are within error of each other in abundance fitness: -0.317 ± 0.17 for the first, -0.364 ± 0.21 for the second.

KSIMKVYCQICRKGDNEELLLLCDGCDKGCHTYCHRPKITTIPDGDWFCPACIAKT [A56T] and KSIMKVYCQICRKGDNEELLLLCDGCDKGCHTYCHRPKITTIPDGDWFCPACIAKM [A56M] are within error of each other in abundance fitness: -0.155 ± 0.16 for the first, -0.28 ± 0.36 for the second.

KSIMKVYCQICRKGDNEELLLLCDGCDKGCHTYCHRPKITTIPDGDWFCPACIAKW [A56W] and KSIMKVYCQICRKGDNEELLLLCDGCDKGCHTYCHRPKITTIPDGDWFCPACIAGA [K55G] are within error of each other in abundance fitness: -0.331 ± 0.33 for the first, 0.058 ± 0.48 for the second.

KSIMKVYCQICRKGDNEELLLLCDGCDKGCHTYCHRPKITTIPDGDWFCPACIAQA [K55Q] and KSIMKVYCQICRKGDNEELLLLCDGCDKGCHTYCHRPKITTIPDGDWFCPACIACA [K55C] are within error of each other in abundance fitness: -0.171 ± 0.36 for the first, -0.154 ± 0.3 for the second.
